Measured values reported in patent US20250262210A1 (TRUSTEES OF COLUMBIA UNIVERSITY IN THE CITY OF NEW YORK, published 2025).

Experiments:
Experiment in all cases: IP/MS, LZTR1 R810W-FLAG, U87
TUBGCP2 = TUBGCP2 (human, UniProt Q9BSJ2 1-902, limits assumed)
How it was run: (§1)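 Read-out: spectral counts from LC-MS/MS (Orbitrap Fusion) after MaxQuant identification. Variable modifications were Met oxidation, protein N-terminal acetylation and N/Q deamidation.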

DPP9 = DPP9 (human, UniProt Q86TI2 2-863, limits assumed)
How it was run: as §1

LONP2 = target: T1, LONP2 (human, UniProt Q86WA8 2-852, limits assumed)
T1 sequence (looked up): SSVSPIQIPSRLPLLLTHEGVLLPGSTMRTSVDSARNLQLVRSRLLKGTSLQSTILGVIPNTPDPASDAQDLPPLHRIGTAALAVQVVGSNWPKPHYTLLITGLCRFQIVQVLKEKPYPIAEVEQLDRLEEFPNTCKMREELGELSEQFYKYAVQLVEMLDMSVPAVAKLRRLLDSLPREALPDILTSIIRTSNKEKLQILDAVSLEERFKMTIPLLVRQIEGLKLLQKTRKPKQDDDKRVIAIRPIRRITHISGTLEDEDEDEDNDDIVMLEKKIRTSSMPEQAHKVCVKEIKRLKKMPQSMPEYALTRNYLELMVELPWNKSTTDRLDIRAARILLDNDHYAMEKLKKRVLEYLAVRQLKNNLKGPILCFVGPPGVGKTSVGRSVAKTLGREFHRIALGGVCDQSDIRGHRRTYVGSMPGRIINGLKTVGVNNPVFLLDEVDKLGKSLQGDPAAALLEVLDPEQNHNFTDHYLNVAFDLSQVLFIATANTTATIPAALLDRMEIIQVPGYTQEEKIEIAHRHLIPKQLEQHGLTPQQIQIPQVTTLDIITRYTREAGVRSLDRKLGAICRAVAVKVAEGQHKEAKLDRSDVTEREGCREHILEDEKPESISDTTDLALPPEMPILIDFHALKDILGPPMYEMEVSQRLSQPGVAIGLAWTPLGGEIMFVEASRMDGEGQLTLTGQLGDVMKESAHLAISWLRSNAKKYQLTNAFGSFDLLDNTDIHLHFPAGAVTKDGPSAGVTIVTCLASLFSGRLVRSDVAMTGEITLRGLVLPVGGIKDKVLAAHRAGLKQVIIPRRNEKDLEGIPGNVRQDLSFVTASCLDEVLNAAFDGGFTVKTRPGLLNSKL
How it was run: as §1

ANKRD52 = target: T2, ANKRD52 (human, UniProt Q8NB46 1-1076)
T2 sequence (looked up): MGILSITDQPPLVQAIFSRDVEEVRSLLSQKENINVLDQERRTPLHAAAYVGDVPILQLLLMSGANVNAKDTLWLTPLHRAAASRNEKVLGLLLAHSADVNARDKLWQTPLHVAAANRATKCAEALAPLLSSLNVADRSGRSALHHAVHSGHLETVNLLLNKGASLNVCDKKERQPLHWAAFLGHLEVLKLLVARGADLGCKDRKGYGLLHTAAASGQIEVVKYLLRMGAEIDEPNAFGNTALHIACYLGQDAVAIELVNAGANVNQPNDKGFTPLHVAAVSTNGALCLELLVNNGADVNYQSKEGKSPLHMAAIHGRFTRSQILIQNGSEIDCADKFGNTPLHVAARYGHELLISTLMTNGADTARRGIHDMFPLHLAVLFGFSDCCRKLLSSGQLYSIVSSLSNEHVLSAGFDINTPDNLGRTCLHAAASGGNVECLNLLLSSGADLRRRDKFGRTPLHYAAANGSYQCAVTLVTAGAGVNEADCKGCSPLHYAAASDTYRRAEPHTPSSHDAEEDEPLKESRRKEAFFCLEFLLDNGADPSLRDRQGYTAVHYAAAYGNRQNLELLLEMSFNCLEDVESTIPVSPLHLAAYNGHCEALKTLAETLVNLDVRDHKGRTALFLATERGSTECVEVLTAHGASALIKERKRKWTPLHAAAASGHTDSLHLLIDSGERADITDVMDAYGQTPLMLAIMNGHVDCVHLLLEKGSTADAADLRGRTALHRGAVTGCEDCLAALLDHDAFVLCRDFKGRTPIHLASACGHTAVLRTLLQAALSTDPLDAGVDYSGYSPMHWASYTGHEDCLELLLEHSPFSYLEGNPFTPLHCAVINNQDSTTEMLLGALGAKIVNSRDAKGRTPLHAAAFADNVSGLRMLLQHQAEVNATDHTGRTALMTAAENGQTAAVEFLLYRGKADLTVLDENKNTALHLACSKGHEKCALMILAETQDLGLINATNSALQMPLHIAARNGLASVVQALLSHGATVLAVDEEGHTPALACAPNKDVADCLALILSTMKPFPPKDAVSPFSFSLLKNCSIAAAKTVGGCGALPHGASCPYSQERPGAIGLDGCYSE
How it was run: as §1

HELZ = HELZ (human, UniProt P42694 1-1942, limits assumed)
How it was run: as §1

Measured: binding result

Sequence of HELZ (P42694 whole entry): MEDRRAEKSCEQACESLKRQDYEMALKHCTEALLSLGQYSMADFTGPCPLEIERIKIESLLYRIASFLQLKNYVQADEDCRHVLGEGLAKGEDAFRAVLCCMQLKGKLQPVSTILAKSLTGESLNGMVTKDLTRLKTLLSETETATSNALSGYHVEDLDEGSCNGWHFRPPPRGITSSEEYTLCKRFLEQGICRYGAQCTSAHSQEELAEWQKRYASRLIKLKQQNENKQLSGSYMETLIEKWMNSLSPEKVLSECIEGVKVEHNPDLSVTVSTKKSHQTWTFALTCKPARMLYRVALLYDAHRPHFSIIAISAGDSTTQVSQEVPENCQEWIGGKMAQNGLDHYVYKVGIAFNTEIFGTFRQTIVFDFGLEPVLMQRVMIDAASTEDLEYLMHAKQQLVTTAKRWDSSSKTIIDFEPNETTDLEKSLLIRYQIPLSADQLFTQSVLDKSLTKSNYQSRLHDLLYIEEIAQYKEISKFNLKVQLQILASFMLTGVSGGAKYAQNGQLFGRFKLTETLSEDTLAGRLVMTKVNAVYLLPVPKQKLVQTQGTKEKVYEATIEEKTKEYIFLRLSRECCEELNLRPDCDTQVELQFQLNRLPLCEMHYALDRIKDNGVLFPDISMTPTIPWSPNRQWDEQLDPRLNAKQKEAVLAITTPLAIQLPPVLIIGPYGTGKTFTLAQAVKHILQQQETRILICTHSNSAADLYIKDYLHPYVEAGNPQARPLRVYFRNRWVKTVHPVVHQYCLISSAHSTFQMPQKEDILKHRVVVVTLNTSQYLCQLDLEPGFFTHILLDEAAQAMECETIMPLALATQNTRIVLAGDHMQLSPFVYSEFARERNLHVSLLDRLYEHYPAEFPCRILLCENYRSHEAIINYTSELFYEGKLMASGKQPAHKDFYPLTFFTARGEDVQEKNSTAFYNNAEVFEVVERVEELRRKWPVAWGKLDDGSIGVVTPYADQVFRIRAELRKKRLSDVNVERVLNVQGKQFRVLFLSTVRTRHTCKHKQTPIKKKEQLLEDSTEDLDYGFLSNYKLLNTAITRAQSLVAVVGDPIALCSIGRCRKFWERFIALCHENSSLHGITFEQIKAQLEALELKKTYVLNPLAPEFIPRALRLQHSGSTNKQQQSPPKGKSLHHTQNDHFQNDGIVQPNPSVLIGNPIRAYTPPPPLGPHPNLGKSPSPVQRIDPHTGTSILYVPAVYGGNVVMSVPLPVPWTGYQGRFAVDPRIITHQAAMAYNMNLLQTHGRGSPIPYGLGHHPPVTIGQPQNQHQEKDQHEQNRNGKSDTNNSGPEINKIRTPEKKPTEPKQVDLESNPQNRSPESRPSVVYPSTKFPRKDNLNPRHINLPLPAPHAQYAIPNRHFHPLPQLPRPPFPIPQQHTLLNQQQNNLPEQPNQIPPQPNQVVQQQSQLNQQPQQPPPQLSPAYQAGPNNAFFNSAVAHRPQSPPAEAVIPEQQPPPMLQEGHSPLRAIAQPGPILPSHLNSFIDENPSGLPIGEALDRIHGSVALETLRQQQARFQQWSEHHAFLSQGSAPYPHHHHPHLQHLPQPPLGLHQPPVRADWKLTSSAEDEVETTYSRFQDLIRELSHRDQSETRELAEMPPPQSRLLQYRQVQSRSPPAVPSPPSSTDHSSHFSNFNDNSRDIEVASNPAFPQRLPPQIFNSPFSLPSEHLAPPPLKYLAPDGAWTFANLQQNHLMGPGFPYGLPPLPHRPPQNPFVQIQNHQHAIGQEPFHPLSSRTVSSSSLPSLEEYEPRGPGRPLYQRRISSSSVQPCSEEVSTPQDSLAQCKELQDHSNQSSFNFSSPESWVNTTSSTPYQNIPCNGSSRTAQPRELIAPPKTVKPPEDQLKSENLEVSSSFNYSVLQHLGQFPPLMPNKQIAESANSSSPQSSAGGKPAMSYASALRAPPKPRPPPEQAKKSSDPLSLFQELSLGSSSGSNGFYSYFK
Sequence of TUBGCP2 (Q9BSJ2 whole entry, the tested form may be a part): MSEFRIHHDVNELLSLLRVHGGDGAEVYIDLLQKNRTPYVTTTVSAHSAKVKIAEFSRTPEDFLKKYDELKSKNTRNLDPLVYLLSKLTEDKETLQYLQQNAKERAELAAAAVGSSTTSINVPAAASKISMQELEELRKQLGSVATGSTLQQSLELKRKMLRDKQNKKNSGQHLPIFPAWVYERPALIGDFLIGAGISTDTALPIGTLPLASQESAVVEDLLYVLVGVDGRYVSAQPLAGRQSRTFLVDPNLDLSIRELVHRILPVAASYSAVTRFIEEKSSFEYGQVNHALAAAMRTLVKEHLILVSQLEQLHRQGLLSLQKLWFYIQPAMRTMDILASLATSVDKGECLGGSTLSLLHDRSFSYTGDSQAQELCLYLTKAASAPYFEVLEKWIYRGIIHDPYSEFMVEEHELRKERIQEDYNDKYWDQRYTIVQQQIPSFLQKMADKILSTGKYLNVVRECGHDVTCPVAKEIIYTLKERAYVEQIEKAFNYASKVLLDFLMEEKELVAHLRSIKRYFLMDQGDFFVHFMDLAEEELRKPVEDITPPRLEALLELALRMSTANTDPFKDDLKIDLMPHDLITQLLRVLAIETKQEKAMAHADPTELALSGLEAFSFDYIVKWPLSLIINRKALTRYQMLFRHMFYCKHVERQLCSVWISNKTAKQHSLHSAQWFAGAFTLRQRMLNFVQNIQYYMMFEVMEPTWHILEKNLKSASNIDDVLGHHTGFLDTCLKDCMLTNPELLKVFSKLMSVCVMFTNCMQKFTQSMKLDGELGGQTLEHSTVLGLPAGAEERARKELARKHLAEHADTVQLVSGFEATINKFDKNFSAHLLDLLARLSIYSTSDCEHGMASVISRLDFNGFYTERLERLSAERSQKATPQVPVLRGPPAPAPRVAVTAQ
Sequence of DPP9 (Q86TI2 2-863 limits assumed): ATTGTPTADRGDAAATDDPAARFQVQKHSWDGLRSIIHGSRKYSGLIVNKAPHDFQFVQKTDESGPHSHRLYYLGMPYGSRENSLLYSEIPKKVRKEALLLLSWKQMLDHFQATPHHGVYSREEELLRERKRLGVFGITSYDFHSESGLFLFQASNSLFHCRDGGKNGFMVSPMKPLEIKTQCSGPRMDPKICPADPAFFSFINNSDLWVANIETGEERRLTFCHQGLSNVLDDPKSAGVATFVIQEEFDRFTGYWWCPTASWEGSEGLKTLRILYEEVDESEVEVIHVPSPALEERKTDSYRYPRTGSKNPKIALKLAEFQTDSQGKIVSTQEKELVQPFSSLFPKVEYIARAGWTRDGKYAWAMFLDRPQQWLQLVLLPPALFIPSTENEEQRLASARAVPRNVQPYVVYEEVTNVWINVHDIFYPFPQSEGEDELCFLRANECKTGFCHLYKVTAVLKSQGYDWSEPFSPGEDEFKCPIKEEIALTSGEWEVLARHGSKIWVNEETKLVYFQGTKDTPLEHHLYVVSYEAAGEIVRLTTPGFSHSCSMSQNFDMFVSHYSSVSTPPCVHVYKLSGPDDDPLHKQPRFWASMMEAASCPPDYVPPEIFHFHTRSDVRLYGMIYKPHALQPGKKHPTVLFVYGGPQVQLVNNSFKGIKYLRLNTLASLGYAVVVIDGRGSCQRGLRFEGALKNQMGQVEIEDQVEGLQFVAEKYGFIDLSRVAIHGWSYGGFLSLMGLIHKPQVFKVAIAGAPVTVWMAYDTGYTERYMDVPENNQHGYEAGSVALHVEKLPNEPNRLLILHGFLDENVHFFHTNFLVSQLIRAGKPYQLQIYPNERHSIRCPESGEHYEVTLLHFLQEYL

B1: LZTR1 R810W-FLAG (other, human, UniProt Q8N653 1-840, looked up)
chain: MAGPGSTGGQIGAAALAGGARSKVAPSVDFDHSCSDSVEYLTLNFGPFETVHRWRRLPPCDEFVGARRSKHTVVAYKDAIYVFGGDNGKTMLNDLLRFDVKDCSWCRAFTTGTPPAPRYHHSAVVYGSSMFVFGGYTGDIYSNSNLKNKNDLFEYKFATGQWTEWKIEGRLPVARSAHGATVYSDKLWIFAGYDGNARLNDMWTIGLQDRELTCWEEVAQSGEIPPSCCNFPVAVCRDKMFVFSGQSGAKITNNLFQFEFKDKTWTRIPTEHLLRGSPPPPQRRYGHTMVAFDRHLYVFGGAADNTLPNELHCYDVDFQTWEVVQPSSDSEVGGAEVPERACASEEVPTLTYEERVGFKKSRDVFGLDFGTTSAKQPTQPASELPSGRLFHAAAVISDAMYIFGGTVDNNIRSGEMYRFQFSCYPKCTLHEDYGRLWESRQFCDVEFVLGEKEECVQGHVAIVTARSRWLRRKITQARERLAQKLEQEAAPVPREAPGVAAGGARPPLLHVAIREAEARPFEVLMQFLYTDKIKYPRKGHVEDVLLIMDVYKLALSFQLCRLEQLCRQYIEASVDLQNVLVVCESAARLQLSQLKEHCLNFVVKESHFNQVIMMKEFERLSSPLIVEIVRRKQQPPPRTPLDQPVDIGTSLIQDMKAYLEGAGAEFCDITLLLDGHPRPAHKAILAARSSYFEAMFRSFMPEDGQVNISIGEMVPSRQAFESMLRYIYYGEVNMPPEDSLYLFAAPYYYGFYNNRLQAYCKQNLEMNVTVQNVLQILEAADKTQALDMKRHCLHIIVHQFTKVSKLPTLWSLSQQLLLDIIDSLASHISDKQCAELGADI
notes: Stably expressed in U87 cells by lentivirus; also called LZTR1-FLAG-R810W; LZTR1 RW; not shown: FLAG tag
binds: TUBGCP2 | DPP9 | LONP2 | ANKRD52 | HELZ
